Patent US20140287433A1

How the values were obtained:
[1] = target: VAMPtide (o-Abz/Dnp) (List Biological Laboratories, Inc.); experiment: cell-based or functional assay
[2] = target: PL150 (Pharmaleads): [(Ac-60-94)VAMP](Pya74,Nop77); experiment: cell-based or functional assay
[3] = target: GST-Synaptotagmin II (SytII) fusion protein (rat)

Substance	limit of detection of the toxin by VAMPtide cleavage [1]	lowest toxin concentration detected by substrate cleavage (fluorescence) [1]	lowest toxin concentration detected by substrate cleavage (fluorescence) [2]	increase of binding at pH 5.2 against pH 7.2 [3]
BoNT/B complex from C. botulinum strain Okra B (Metabiologics Inc.) (from UniProt B1INP5 2-1291)	5 nM	–	–	–
purified 150 kDa BoNT/B from C. botulinum strain Okra B (Metabiologics Inc.)	2 nM	2 nM	10 pM	100%
